Laboratory results reported in patent US12559537B2, “Nucleic acid encoding NKP30 receptor targeted therapeutics” (THE TRUSTEES OF DARTMOUTH COLLEGE, priority 2011, dated 2026).

Test system: K562 target cells
Test: Cytotoxicity-blocking with soluble NKp30 (LDH release)
Type: cell-based, human
Details: 10 μg/ml, K562 targets, E:T 5:1, 5-h LDH release
Protocol: FIG. 7C further illustrates that lysis was mediated by the chimeric NKp30 constructs. […] Effector T cells modified with wtNKp30 or NKp30-CD28-3ζ were cocultured with target cells K562 in the presence of 10 μg/ml NKp30-mIgG2a or mouse IgG at a ratio of 5:1; the percentage of specific lysis was determined after a 5-h LDH-release assay. The data are presented as mean+/−SD and are representative of two independent experiments.
The cytotoxic activity of chimeric NKp30-modified human T cells against various tumor cell lines was determined. […] To confirm that chimeric NKp30-mediated killing is dependent on the interactions between NKp30 and its ligands, soluble NKp30 (NKp30-mIgG2a) was incubated with K562 target cells prior to the coculture with T cells.
Cytotoxicity of T cells against target cells was determined by an LDHrelease assay using the CytoTox 96 Non-Radioactive Cytotoxicity Assay kit (Promega, Madison, WI). Specific lysis was determined using the following equation: percentage of specific lysis=[(experimental−effector spontaneous−target spontaneous)/(target maximum−target spontaneous)]×100. In the cytotoxicity-blocking experiments, K562 target cells were preincubated with a soluble NKp30 receptor, NKp30-mIgG2a ([…]), for 30 min before coculture with T cells in an LDH-release assay.

## NKp30-mIgG2a: soluble fusion protein: extracellular portion of human NKp30 fused to the mouse IgG2a hinge-CH2-CH3 portion
  NKp30-28-3ζ-bearing T cell-mediated cytotoxicity in presence of soluble NKp30: significantly reduced
